# ± gives the uncertainty stated by the source.
# Assay: protein stability index of a GFP-peptide fusion (yeast GPS) (PSI 1-4); higher = more stable; sorted into four equal gates, so the index is relative within each strain
# Summary of the method: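 For each peptide, the protein stability index sums the read frequency in every gate after multiplying it by the gate number. Read frequencies came from plasmids that were PCR-amplified from each gate and Illumina-sequenced, with reads assigned to strains by barcodes. The gates were four equal bins of GFP/Cherry fluorescence ratio applied to mid-log yeast in leucine-free medium carrying a pooled library of tiled 17-residue yeast protein peptides fused downstream of GFP on a Cherry-expressing plasmid.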
Sequence,protein stability index (doa10∆),protein stability index (pdr5∆),protein stability index (san1∆),protein stability index (ubr1∆)
KSLALLGYNFDGSAIED [SNF5],3.01 ± 0.084,2.99 ± 0.083,2.28 ± 0.072,2.86 ± 0.07
WLETYSENRDKFLQEFI [IRR1],2.97 ± 0.096,1.93 ± 0.11,2.58 ± 0.096,1.92 ± 0.1
STSVGWKYEDVVAKLED [RPL16B],3.31 ± 0.073,2.28 ± 0.094,2.48 ± 0.11,3.33 ± 0.075
LVRDSKPSKPFNVDDVL [MED8],2.48 ± 0.055,2.57 ± 0.044,2.46 ± 0.051,2.5 ± 0.047
GPPYTTDEHLIFNSGKM [ISW2],3.13 ± 0.059,3.26 ± 0.058,3.06 ± 0.049,2.99 ± 0.048
QPTIRKDGLKLVGSWKK [RPO21],3.52 ± 0.19,,3.3 ± 0.14,
IDHINEESWEKVVEFAI [SCL1],2.78 ± 0.07,3.08 ± 0.082,3.03 ± 0.068,2.91 ± 0.06
VNDNDERAARVVKGRVE [RPO31],3.17 ± 0.16,3.36 ± 0.15,3.15 ± 0.25,3.4 ± 0.091
HVLSRLSYISALGMMTR [RET1],1.35 ± 0.073,1.32 ± 0.053,1.24 ± 0.13,1.33 ± 0.073
YGAYNTQIANAGASPMV [PRE4],2.16 ± 0.1,2.3 ± 0.096,1.92 ± 0.097,1.61 ± 0.063
VLRLRGALVDRTQPWSI [RPS0A],2.65 ± 0.086,2.44 ± 0.072,2.52 ± 0.067,3.08 ± 0.031
VRDELRKVEKEKNEKER [UBP6],,,3.5 ± 0.13,3.78 ± 0.2
FGLGYGDVGKNHITEFP [RPC31],3.17 ± 0.11,3.22 ± 0.11,3.38 ± 0.12,3.56 ± 0.12
DVNIIGKDRIAINVFPE [RPO31],2.75 ± 0.12,3.05 ± 0.12,2.88 ± 0.098,3.36 ± 0.086
EFFSTNWLSIFNDFSNI [REC8],2.83 ± 0.075,2.91 ± 0.067,2.09 ± 0.098,2.83 ± 0.08
FFPYYVHTIIAGLDEDG [PRE7],3.65 ± 0.15,3.31 ± 0.12,3.35 ± 0.092,3.26 ± 0.095
ERKKQSDVLRFLQRVRV [RPL15B],2.08 ± 0.06,2.43 ± 0.062,2.04 ± 0.066,2.12 ± 0.043
QTLSEKEYQCSAVIIDE [YIL149C/MLP2],2.64 ± 0.11,3.03 ± 0.098,3.15 ± 0.082,2.88 ± 0.054
ANLLFKKEKLKQENSTL [RPC82],2.15 ± 0.077,2.24 ± 0.067,1.92 ± 0.12,1.93 ± 0.06
KSDDDDHTVDEIDHVEY [SRB8],2.45 ± 0.069,2.46 ± 0.08,2.98 ± 0.1,2.91 ± 0.048
VKDWLYDSRPLEEDSKK [PRP8],2.95 ± 0.19,2.91 ± 0.24,2.8 ± 0.12,
DLKKFTSTITKYKQLLL [RPN3],2.92 ± 0.089,3 ± 0.055,2.91 ± 0.066,3.07 ± 0.045
HELPRYGITHGLTNWAA [RPL5],2.44 ± 0.045,2.42 ± 0.035,2.47 ± 0.048,2.25 ± 0.035
PGGAASKSVPTPSLPIA [SNF5],2.9 ± 0.062,3.07 ± 0.056,2.97 ± 0.036,3.06 ± 0.041
QQPHYIQRTRERKKSIG [DSN1],2.93 ± 0.067,2.85 ± 0.047,2.63 ± 0.048,2.69 ± 0.051

Sequence,protein stability index (doa10∆),protein stability index (pdr5∆),protein stability index (san1∆),protein stability index (ubr1∆)
NNDDDDNSVEQGRRLGE [MCD1],,3.46 ± 0.21,,3.37 ± 0.12
LQRDLIQTKEQVSINSN [YIL149C/MLP2],2.78 ± 0.072,3.12 ± 0.089,3.11 ± 0.065,3.27 ± 0.059
GRLRNKSHKQTIVTGGG [RPP1],2.57 ± 0.093,2.89 ± 0.081,2.56 ± 0.073,2.92 ± 0.074
ILLYGPPGTGKTLCARA [RPT1],1.26 ± 0.1,1.23 ± 0.18,1.36 ± 0.19,1.28 ± 0.12
YFWHKIWRKVPGDVLDK [SNU114],1.15 ± 0.095,1.08 ± 0.064,1.51 ± 0.23,1.22 ± 0.094
NVNNNNIGQQQVKKPRK [SWI1],3.42 ± 0.12,3.37 ± 0.16,3.29 ± 0.084,3.13 ± 0.21
SYANLPGTITHGMFSSA [FAS1],2.64 ± 0.06,2.15 ± 0.051,2.16 ± 0.055,2.51 ± 0.035
TTKLAFLVEYEGQENNY [SIR4],2.87 ± 0.085,2.85 ± 0.068,2.4 ± 0.1,3.19 ± 0.052
PMHSIMPNSSLQPFYSQ [DSN1],2.12 ± 0.072,2.65 ± 0.061,2.37 ± 0.083,2.49 ± 0.048
RSEFIESLLNWINRSDG [YJR042W/NUP85],,3.11 ± 0.15,2.77 ± 0.24,3.22 ± 0.22
KDERDTWIHSEIEELKS [SMC3],3.16 ± 0.18,3.02 ± 0.097,2.91 ± 0.25,3.19 ± 0.12
TGANSIYSVEKKISRLP [UBP6],3 ± 0.08,3.52 ± 0.11,3.07 ± 0.059,3.26 ± 0.037
LKRMEILKSPHLSKSPA [SIR4],2.96 ± 0.06,2.93 ± 0.066,2.95 ± 0.058,2.78 ± 0.045
EKLITSKLLVPQKNVKI [PRE10],2.55 ± 0.061,2.6 ± 0.047,2.04 ± 0.096,2.21 ± 0.042
SKGSFINIAQMSACVGQ [RPO21],1.44 ± 0.059,1.61 ± 0.053,1.3 ± 0.082,1.67 ± 0.051
RNPDIYTREFVEAIRRS [NUT2],2.42 ± 0.068,2.15 ± 0.055,2.84 ± 0.15,3.02 ± 0.054
SLDMNSMNKELIAIVSK [NUT1],1.56 ± 0.19,1.44 ± 0.13,,1.19 ± 0.088
QMTWRQWLNNALKRSYG [POP8],2.9 ± 0.085,3.08 ± 0.14,3.56 ± 0.079,3.2 ± 0.079
IPGEYITYALSGYVRSR [RPS21B],2.42 ± 0.059,2.73 ± 0.095,2.39 ± 0.093,2.77 ± 0.047
NLQVELLSEHDDHNGEV [YGL100W/SEH1],3.12 ± 0.088,3.2 ± 0.071,2.83 ± 0.06,3.37 ± 0.055
RGRSVMKESVVEINSSE [ESC2],3.15 ± 0.11,2.83 ± 0.14,3.09 ± 0.17,2.98 ± 0.1
VPTGGASSAAAGAAGAA [RPP2B],2.88 ± 0.11,3.04 ± 0.083,3.17 ± 0.07,2.97 ± 0.1
ETDHANTENNDPDIPMT [IRR1],2.74 ± 0.09,2.59 ± 0.066,2.81 ± 0.048,2.68 ± 0.07
APEQQVQQFAQLPVGFK [UBP6],2.92 ± 0.08,2.99 ± 0.052,3.09 ± 0.059,2.99 ± 0.037
QVVVDAITNTGPREDTT [RPS5],2.95 ± 0.064,2.95 ± 0.058,2.82 ± 0.064,2.73 ± 0.042

# From the supplement of paper PMC9732359
